Results taken from paper PMC7870846, “Incorporation of sensing modalities into de novo designed fluorescence-activating proteins” (Nature Communications, 2021).

Columns and labels:
[1] = with DFHBI; cited from earlier work
[2] = design: method as in PMID 30209393; details: read-out: Kd for the phenolate form of DFHBI; cited from earlier work
[3] = In vitro chromophore titration with DFHBI (fluorescence, single-binding site isotherm fit)
Protocol: Fluorescence endpoints were measured on a Synergy Neo2 hybrid multi-mode reader (BioTek) in flat bottom, black polystyrene, non-binding surface 96-well microplates (Corning 3650). In measuring chromophore-binding affinities (Fig. 1d, e), mFAP2, mFAP2a, and mFAP2b, and mFAP10 were produced by large-scale protein purification and SEC purification. Proteins were aliquoted in eight technical replicates in 200 μL final volumes to 20.0 nM final concentration in ten serial dilutions ( 10 dilution factor) of DFHBI starting from 31.6 μM DFHBI or 31.6 μM DFHBI-1T final concentrations, including an eleventh condition without chromophore. Fluorescence was excited at λex = 468 nm and fluorescence emission measured at λem = 530 nm. Background fluorescence endpoints of wells with identical chromophore concentrations but purified protein replaced with an identical volume of high-salt Tev cleavage buffer were measured, and fluorescence endpoints subtracted from those measured with protein. Background-subtracted data were averaged and the means normalized from 0 to 1 and fit to a single-binding site isotherm function using non-linear least squares fitting to obtain a fitted Kd value (Table 1), and the fit scaled to the maximum mean value (Fig. 1d, e).

[4] = Photophysical characterization: absorbance, excitation/emission spectra, extinction coefficients, quantum yields; type: physicochemical
Protocol: Protein preparation: mFAP2a, mFAP2b, and mFAP10 were produced by large-scale protein purification and SEC purification, and dialyzed overnight into DPBS that was adjusted to pH 7.40 using NaOH.
Chromophore preparation: DFHBI (Lucerna) and DFHBI-1T (Lucerna) were dissolved to 20.0 mM in 100% DMSO, and diluted in DPBS (pH 7.40) to measure absorbances on a Jasco V-750 spectrophotometer at peak absorbance wavelengths (417 nm for DFHBI and 422 nm for DFHBI-1T). Following background subtraction of identical buffer without chromophore, Beer’s Law was used to calculate the molar chromophore concentrations of the stock solutions using previously reported extinction coefficients.
Preparation of protein–chromophore complexes: For quantum yield measurements, 1.00 μM, 836 nM, or 919 nM chromophore solutions in DPBS (pH 7.40) at 4.00 mL final volumes were prepared for the following eight conditions: DFHBI only, DFHBI-1T only, 43.5 µM 6xHis-mFAP10 with DFHBI, 43.5 µM 6xHis-mFAP10 with DFHBI-1T, 134 μM 6xHis-mFAP2a with DFHBI, 134 μM 6xHis-mFAP2a with DFHBI-1T, 206 μM 6xHis-mFAP2b with DFHBI, and 206 μM 6xHis-mFAP2b with DFHBI-1T.
Extinction coefficients: Absorbance spectra of protein–chromophore complexes were first measured with a Thermo Scientific BioMate 3S UV–Vis Spectrophotometer (1 nm interval, 800 nm min^−1). The extinction coefficients were then calculated using Beer’s Law:12 A=ε⋅b⋅c, where A is peak absorbance, ε is extinction coefficient, b is path length (1 cm), and c is concentration (1.00 μM, 836 nM, or 919 nM).
Relative quantum yield: A Perkin-Elmer LS-B Luminescence Spectrophotometer (10 nm bandwidth, 1 nm interval, 100 nm min^−1) was used. The fluorescence emission spectra of the protein–chromophore complexes (in DPBS, pH 7.40) and reference dye Acridine Yellow G (in methanol) were first obtained, and the quantum yield was then calculated using the equation[53]:13 ϕc=ϕr⋅1−10^−Ar(λex)/1−10^−Ac(λex)⋅∫Fc(λ)⋅dλ/∫Fr(λ)⋅dλ⋅nc2/nr2, where ϕ is quantum yield, A(λex) is absorbance at the excitation wavelength λex ( λex = 440 nm), F is fluorescence emission, n is refractive index of the solution (1.3350 for DPBS at pH 7.40 and 1.3284 for methanol), and the subscripts “c” and “r” refer to the protein–chromophore complex measured and the reference dye, respectively. […]
Absolute quantum yield: An integrating sphere instrument (Hamamatsu C9920-12) (6 nm excitation bandwidth, 1 nm interval) and a high-sensitivity photonic multi-channel analyzer (Hamamatsu C10027-01) were used to measure a light emission spectrum. Absolute quantum yields were measured for solutions of protein–chromophore complexes in DPBS (pH 7.40) in which ≥95% of the total chromophore was occupying the protein-binding pocket (Table 1). […]

[5] = pH-dependent fluorescence assays (pH titration); type: biochemical; details: from pH 8.38 to pH 3.63
Protocol: In measuring pH-dependent fluorescence (Fig. 3d–i), Na2HPO4-citrate buffer supplemented with 150 mM NaCl at unique pH values were produced via mixing various volumes of 100 mM citric acid (Sigma Aldrich), 200 mM Na2HPO4 (Sigma Aldrich), and 2.00 M NaCl, and final pHs quantified via an Accumet AB15 Basic pH meter (Fisher Scientific). pHRed and pHluorin2 were produced via large-scale protein purification, 6xHis-tag removal and size-exclusion chromatography (SEC) purification, and mFAP_pH and mFAP2b were produced via large-scale protein purification and SEC purification. pH-dependent fluorescence was measured at […] final protein concentration for mFAP2b, mFAP_pH and pHRed, and 170 nM final concentration for pHluorin2, at each pH in technical triplicate in 200 μL final volumes per well. […] In measuring fluorescence excitation spectra at each pH (Fig. 3d), excitation wavelengths were set to the range λex = 300–530 nm and fluorescence emission measured at λem = 562 nm. In measuring pH-dependent fluorescence excitation spectra at pH 3.76 and pH 7.34 (Fig. 3f, g), excitation spectra were measured using excitation wavelengths in the range λex = 300–540 nm and emission wavelength λem = 592 nm. […]

BCL2 = biological target: BCL2; design: method as in PMID 27805565; details: read-out: dissociation constant (Kd); cited from earlier work

B1: mFAP2: previously reported mini-fluorescence-activating protein, initial design (protein)
chain: SRAAQLLPGTWQVTMTNEDGQTSQGQMHFQPRSPYTMDVVAQGTISDGRPISGYGKVTVKTPDTLDVDITYPSLGNIKAQGQITMDSPTQFKFDATTKGAGNFTGRLTGTLQRQE
absolute fluorescence quantum yield (ϕc) [1]: 2.1%
Kd [2]: ~180 nM
higher affinity for DFHBI than DFHBI-1T [3]: ~ 30 fold
brighter fluorescence with DFHBI-1T than DFHBI [4]: ~ 2.7 fold

B2: mFAP_pH: particularly pH-responsive variant (protein)
chain: SRAAQLLPGTWQVTMTNEDGQTSQGQMHFQPRSPYTMDIVAQGTISDGRPIVGYGKATVKTPDTLDIDITYPSLGNIKAQGQITMDSPTQFKFDATTKGENDFHGRLTGTLQRQE
fold-change in ratiometric fluorescence (Fratio) [5]: ~ 250 fold

B3: aBCL2: designed binding partner of BCL2 (protein)
chain: GADPKKVLDKAKDEAENRVRELKQRLEELYKEARKLDLTQEMRQELVDKARAASLQANGDIFYAILRALAEAEKLKKAGLVNSQQLDELKRRLEELAEEARRKAEKLRDEFRLKLEYG
Kd (BCL2): 0.8 ± 0.5 nM
